Source: patent US12611443B2, “Methods and compositions related to therapeutic peptides for cancer therapy” (THE UNIVERSITY OF CHICAGO, priority 2018, dated 2026)

Legend:
ELANE = molecular target: T1, ELANE (Homo sapiens, UniProt P08246); experiment: ELANE activity assay with ECP (chromogenic substrate); type: biochemical; conditions: type II allosteric activator
T1 sequence (P08246 30-267): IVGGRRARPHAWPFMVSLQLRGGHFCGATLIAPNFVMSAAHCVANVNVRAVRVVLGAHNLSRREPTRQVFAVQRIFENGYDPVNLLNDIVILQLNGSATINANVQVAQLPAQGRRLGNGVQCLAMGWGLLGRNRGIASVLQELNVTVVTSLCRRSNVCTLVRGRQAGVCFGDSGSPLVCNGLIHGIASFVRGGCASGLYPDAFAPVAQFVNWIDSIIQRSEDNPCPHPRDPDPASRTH
Procedure: ELANE activity assays. Catalytic activity was measured using the chromogenic substrate N-Methoxysuccinyl-Ala-Ala-Pro-Val p-nitroanilide (Sigma, 100 μg/mL) according to manufacturer's protocol. Absorbance was measured at 405 nm using an accuSkan GO UV/Vis microplate spectrophotometer (ThermoFisher Scientific). For inactivation, ELANE was incubated with PMSF (1 mM, Sigma) or A1AT (42 nM, Athens Research & Technology) for 2 h. Residual PMSF was eliminated with a PD-10 desalting column (GE Healthcare Life). To monitor the effect of ECP on ELANE activity, ELANE (10 nM) was incubated with various doses of ECP (0-180 nM) at various substrate concentrations (0-1.7 mM).
Statistics. With the exception of proteomics studies, statistical significance was determined with the Student's two-tailed, unpaired t-test. Linear regression, Michaelis-Menten, and hyperbolic curve fittings were performed using Prism v.7 software.

[1] = system: Human monocyte-derived macrophages (HMDMs); experiment: Cell viability of HMDMs treated with purified ELANE or ECP; type: cell-based
Procedure: Primary human blood-derived cells.
(§1) In vitro cell viability assays. […] Luminescence was measured using a Victor X3 luminometer (PerkinElmer).

MDA-MB-231 cells = experiment: Cell viability of MDA-MB-231 cells treated with purified ELANE or ECP; type: cell-based, human
Procedure: as §1

B1: ECP: eosinophil cationic protein, a pore-forming protein (protein)
chain: RPPQFTRAQWFAIQHISLNPPRCTIAMRAINNYRWRCKNQNTFLRTTFANVVNVCGNQSIRCPHNRTLNNCHRSRFRVPLLHCDLINPGAQNISNCTYADRPGRRFYVVACDNRDPRDSPRYPVVPVHLDTTI
increase of ELANE catalytic turnover (kcat) (ELANE): ~12 fold
cell viability, purified protein [1]: toxic to HMDMs
killing at concentration present in PMN media, alone (MDA-MB-231 cells; ECP 0.05 μg/mL): could not kill these cells alone
effect on killing capability of ELANE (MDA-MB-231 cells; ELANE 0.25 μg/mL and ECP 0.05 μg/mL): significantly enhanced the selective killing capability of ELANE
cell viability, purified protein (MDA-MB-231 cells; MDA-MB-231): killed MDA-MB-231 cells only at doses that were also toxic to HMDMs
